Measurements reported in paper PMC6598250.

Molecular target: unfolded precursor form of maltose binding protein (preMBP) (E. coli)
Experiment: ITC; 120 uM SecB or SecB_(T10A) titrated into 20 uM preMBP; 25 °C; KPB buffer pH 7.4, 100 mM; MicroCal PEAQ-ITC; triplicate

**Q.** Which Kd does the source give for “SecB_(T10A) (from UniProt P0AG86 1-153) (natural protein)” here?
**A.** 5.2 µM

**Q.** And the dH?
**A.** -1.99 kcal/mol

**Q.** And the stoichiometry N?
**A.** 4.99

**Q.** How did the Kd turn out when “SecB chaperone, wild type (from UniProt P0AG86 1-153) (natural protein)” was run?
**A.** 61.7 µM

**Q.** And the dH?
**A.** -1.48 kcal/mol

**Q.** And the stoichiometry N?
**A.** 3.08
